The text below walks through data of patent US20240076386.

The nature of the data set: AC-SINS self-interaction.

Turning to Polyreactivity negative control, the AC-SINS (wavelength of maximum absorbance relative to blank, nm) is 1 nm.
